From patent US20250304927A1, “PRO-PEPTIDE VARIANTS FOR MODULATING ACTIVITY OF TRANSGLUTAMINASES” (CURIE CO. INC., priority 2022, published 2025)

T1: thermostable variant of Streptomyces mobaraensis transglutaminase (Streptomyces mobaraensis, UniProt P81453 79-407)
T1 sequence: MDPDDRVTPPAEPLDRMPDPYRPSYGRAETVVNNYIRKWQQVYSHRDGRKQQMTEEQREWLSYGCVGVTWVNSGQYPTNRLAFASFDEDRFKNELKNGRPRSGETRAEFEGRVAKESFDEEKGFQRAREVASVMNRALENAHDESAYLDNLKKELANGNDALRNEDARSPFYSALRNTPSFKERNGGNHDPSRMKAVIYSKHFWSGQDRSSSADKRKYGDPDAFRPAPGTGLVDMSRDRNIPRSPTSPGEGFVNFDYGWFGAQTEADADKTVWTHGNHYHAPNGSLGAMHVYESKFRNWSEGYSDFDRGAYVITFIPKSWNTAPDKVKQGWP


Legend:
Assay in all cases: cell-based or functional assay
[1] = target: T1, thermostable variant of Streptomyces …
[2] = target: T1, thermostable variant of Streptomyces …; remark: listed apart in the source
[3] = target: T1, thermostable variant of Streptomyces …; remark: listed apart in the source

Binder	Improvement in binding affinity of inhibitory peptide relative to WT [1] [fold]	Improvement in pH responsiveness of inhibitory peptide relative to WT [2] [fold]	Reduction in binding affinity of inhibitory peptide relative to WT [3] [fold]
MDNGAGEETKSYAQTYRLTADDVANINALNESAPAASSAGPSFRAP [pro-peptide variant E14Q]	> 1.2	> 1.2	
MDNGAGEETKSYAETYRLTADDVANINALNESAPAASSAGPSFRAQ [pro-peptide variant P46Q]	> 1.2	> 1.2	
MDNGAGEETCSYAETYRLTADDVANINALNESAPAASSAGPSFRAP [pro-peptide variant K10C]			> 1.2
MDNGAGEETKSYAETYRLTADDVANINALNESAPAASSAGPSFRAL [pro-peptide variant P46L]	> 1.2	> 1.2	
MDNGAGEETKSYAETYRLTADDVANINALNESAPAASSAGPSFRAK [pro-peptide variant P46K]	> 1.2	> 1.2	
MDNGAGEETKSYAETYRLTADDVANINALNESAPAASSAGPSFRAD [pro-peptide variant P46D]	> 1.2	> 1.2	
MDNGAGEETKSYAETYRITADDVANINALNESAPAASSAGPSFRAP [pro-peptide variant L18I]	> 1.2	> 1.2	
MDNGAGEETKSYAETYRLTAVDVANINALNESAPAASSAGPSFRAP [pro-peptide variant D21V]	> 1.2	> 1.2	
MDNGAGEETKSYAETYRLTASDVANINALNESAPAASSAGPSFRAP [pro-peptide variant D21S]	> 1.2	> 1.2	
MDNGAGEETKSYASTYRLTADDVANINALNESAPAASSAGPSFRAP [pro-peptide variant E14S]	> 1.2	> 5	
MDNGAGEETKSYAATYRLTADDVANINALNESAPAASSAGPSFRAP [pro-peptide variant E14A]			> 1.2
MDNGAGEETKSYAETYRLTAMDVANINALNESAPAASSAGPSFRAP [pro-peptide variant D21M]	> 1.2	> 5	
MDNGAGEETKSYAETYRLTADDVANINALNESAPAASSAGPSFRAA [pro-peptide variant P46A]	> 1.2	> 1.2	
MDNGAGEETKSYAETYRLTADDVANINALNESAPAASSAGPSFRAS [pro-peptide variant P46S]	> 1.2	> 1.2	
MDNGAGEETKSYAETYRLTADAVANINALNESAPAASSAGPSFRAP [pro-peptide variant D22A]	> 1.2	> 1.2	
MDNGAGEETKSYAETYRLTAFDVANINALNESAPAASSAGPSFRAP [pro-peptide variant D21F]	> 1.2	> 1.2	
MDNGAGEETKSYAETYRLTADDVANINALNESAPAASSAGPSFRAE [pro-peptide variant P46E]	> 1.2	> 1.2	
MDNGAGEETKSYAETYRLTADDVANINALNESAPAASSAGPSFRAI [pro-peptide variant P46I]	> 1.2	> 1.2	
MDNGAGEETKSYAETYRLTADDVANINALNESAPAASSAGPSFRAN [pro-peptide variant P46N]	> 1.2	> 5	
MDNGAGEETKSYADTYRLTADDVANINALNESAPAASSAGPSFRAP [pro-peptide variant E14D]			> 1.2
MDNGAGEETKSYAETYRLTADDVANINALNESAPAASSAGPSFRAR [pro-peptide variant P46R]	> 1.2	> 1.2	
MDNGAGEETKSYAETYRLTADDVVNINALNESAPAASSAGPSFRAP [pro-peptide variant A24V]	> 1.2	> 5	
MDNGAGEETKSYACTYRLTADDVANINALNESAPAASSAGPSFRAP [pro-peptide variant E14C]			> 1.2
MDNGAGEETKSYAETYRLTADDVANINALNESAPAASSAGPSFRAC [pro-peptide variant P46C]	> 1.2	> 1.2	
MDNGAGEETKSYAETYRLTACDVANINALNESAPAASSAGPSFRAP [pro-peptide variant D21C]	> 1.2	> 1.2	

Continued, values first:

Improvement in binding affinity of inhibitory peptide relative to WT [1] [fold]	Improvement in pH responsiveness of inhibitory peptide relative to WT [2] [fold]	Reduction in binding affinity of inhibitory peptide relative to WT [3] [fold]	Binder
		> 1.2	MDNGAGEETKYYAETYRLTADDVANINALNESAPAASSAGPSFRAP [pro-peptide variant S11Y]
		> 5	MDNGAGEETKGYAETYRLTADDVANINALNESAPAASSAGPSFRAP [pro-peptide variant S11G]
		> 1.2	MDNGAGEETKSPAETYRLTADDVANINALNESAPAASSAGPSFRAP [pro-peptide variant Y12P]
> 1.2	> 1.2		MDNGAGEETKSYAETYRLTADDVANINALNESAPAASFAGPSFRAP [pro-peptide variant S38F]
> 1.2	> 1.2		MDNGAGEETKSYAETYRLTADDVANINALNESAPAASSAGPSFRAV [pro-peptide variant P46V]
> 1.2	> 1.2		MDNGAGEETKSYAEVYRLTADDVANINALNESAPAASSAGPSFRAP [pro-peptide variant T15V]
> 1.2	> 1.2		MDNGAGEETKSYAEDYRLTADDVANINALNESAPAASSAGPSFRAP [pro-peptide variant T15D]
> 1.2	> 1.2		MDNGAGEETKSYAETYRLTADDVANINALNESAPAASVAGPSFRAP [pro-peptide variant S38V]
> 1.2	> 1.2		MDNGAGEETKSYAETYRLTADDVANINALNESAPAASHAGPSFRAP [pro-peptide variant S38H]
> 1.2	> 1.2		MDNGAGEETKSYAETYRLTADDVANINALNESAPAASSAGPSFRAW [pro-peptide variant P46W]
> 1.2	> 1.2		MDNGAGEETKSYAETYRLTADDVANINALNESAPAASTAGPSFRAP [pro-peptide variant S38T]
		> 5	MDNGAGEETKSSAETYRLTADDVANINALNESAPAASSAGPSFRAP [pro-peptide variant Y12S]
		> 1.2	MDNGAGEETKHYAETYRLTADDVANINALNESAPAASSAGPSFRAP [pro-peptide variant S11H]
